The record followed here is PMC12548662.

This experiment has as its target Recombinant human α-centractin with an N-terminal His6 tag (human) (UniProt P61163).
Sequence of UniProt P61163 (P61163 whole entry): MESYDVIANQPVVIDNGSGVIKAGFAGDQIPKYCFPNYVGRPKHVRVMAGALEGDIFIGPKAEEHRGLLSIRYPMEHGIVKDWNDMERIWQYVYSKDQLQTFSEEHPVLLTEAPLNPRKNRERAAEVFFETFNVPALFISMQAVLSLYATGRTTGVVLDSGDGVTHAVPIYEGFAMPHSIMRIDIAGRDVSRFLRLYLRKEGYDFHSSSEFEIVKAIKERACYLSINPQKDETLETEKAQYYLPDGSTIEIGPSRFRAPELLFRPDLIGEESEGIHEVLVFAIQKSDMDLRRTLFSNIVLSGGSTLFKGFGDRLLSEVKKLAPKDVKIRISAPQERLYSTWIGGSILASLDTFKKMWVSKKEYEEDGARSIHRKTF

B1: Recombinant His6-tagged human SETD3 (wild-type) (enzyme)
chain: MGKKSRVKTQKSGTGATATVSPKEILNLTSELLQKCSSPAPGPGKEWEEYVQIRTLVEKIRKKQKGLSVTFDGKREDYFPDLMKWASENGASVEGFEMVNFKEEGFGLRATRDIKAEELFLWVPRKLLMTVESAKNSVLGPLYSQDRILQAMGNIALAFHLLCERASPNSFWQPYIQTLPSEYDTPLYFEEDEVRYLQSTQAIHDVFSQYKNTARQYAYFYKVIQTHPHANKLPLKDSFTYEDYRWAVSSVMTRQNQIPTEDGSRVTLALIPLWDMCNHTNGLITTGYNLEDDRCECVALQDFRAGEQIYIFYGTRSNAEFVIHSGFFFDNNSHDRVKIKLGVSKSDRLYAMKAEVLARAGIPTSSVFALHFTEPPISAQLLAFLRVFCMTEEELKEHLLGDSAIDRIFTLGNSEFPVSWDNEVKLWTFLEDRASLLLKTYKTTIEEDKSVLKNHDLSVRAKMAIKLRLGEKEILEKAVKSAAVNREYYRQQMEEKAPLPKYEESNLGLLESSVGDSRLPLVLRNLEEEAGVQDALNIREAISKAKATENGLVNGENSIPNGTRSENESLNQESKRAVEDAKGSSSDSTAGVKE
Turning to B1, the KM of SETD3 for α-centractin (0.2–5 µM), radiochemical methyltransferase assay, 5 min at 37 °C with 1 µM [1H+3H]SAM came to 3.83 µM.
